{"source": "patent US20140057332A1", "about": "“GLUCO-OLIGOSACCHARIDE OXIDASES FROM ACREMONIUM STRICTUM AND USES THEREOF” (The Governing Council of the University of Toronto, priority 2011, published 2014)", "key": {"[1]": {"experiment": "Effect of deglycosylation with PNGaseF on enzyme activity", "type": "biochemical", "conditions": "10 mM maltose, 15 min at 37° C., duplicate", "method": "Approximately 2 μg of purified enzyme was treated with PNGaseF (New England Biolabs) using denaturing and native conditions. Samples that were deglycosylated using denaturing conditions were analysed by SDS PAGE, while samples deglycosylated using native conditions were used to evaluate the impact of glycosylation on enzyme activity. The activity of enzymes was measured on 10 mM maltose at 37° C. for 15 min. (Table 7). N-glycosylation was predicted by NetNGlyc (http://www.cbs.dtu.dk/services/NetNGlyc/) while O-glycosylation was predicted by OGPET (http://ogpet.utep.edu/OGPET/)."}, "[2]": {"experiment": "Chromogenic H2O2 oxidase assay / kinetic analysis on NAG", "procedure": "(§1) A chromogenic assay was used to measure hydrogen peroxide production (15). Reactions contained 0.1 mM 4aminoantipyrine (4AA), 1 mM phenol, 0.5 U horseradish peroxidase, 40 mM Tris-HCl (pH 8.0), and different substrates were initiated by adding 0.2 μg of enzymes to the 250 μL reaction mixture. The production of H2O2 was coupled to the oxidation of 4aminoantipyrine by horseradish peroxidase and detected at 500 nm. Reactions were incubated at 37° C. for 15 min to measure the specific activity of GOOX on 10 mM of monosaccharide or 1 mM of oligosaccharide.\n(§2) At least 12 substrate concentrations were included to obtain kinetic parameters for each substrate. Initial rates were obtained by measuring reaction products every 30 s for 15 min at 37° C. and pH 8.0, and kinetic parameters were calculated using the Michaelis-Menten equation (GraphPad Prism5 Software)."}, "[3]": {"experiment": "Chromogenic H2O2 oxidase assay / kinetic analysis on xylotriose", "procedure": "as §1, §2"}, "[4]": {"experiment": "Chromogenic H2O2 oxidase assay / kinetic analysis on xylobiose", "procedure": "as §1, §2"}, "[5]": {"experiment": "Chromogenic H2O2 oxidase assay / kinetic analysis on xylose", "procedure": "as §1, §2"}, "[6]": {"experiment": "Chromogenic H2O2 oxidase assay / kinetic analysis on galactose", "procedure": "as §1, §2"}, "[7]": {"substrate": "OC[C@H]1OC(O)[C@H](O)[C@@H](O)[C@@H]1O", "experiment": "purified protein, by the assay type", "conditions": "other: 37° C., pH 8.0", "procedure": "as §1, §2"}, "[8]": {"substrate": "OC[C@H]1OC(O)[C@H](O)[C@@H](O)[C@H]1O", "experiment": "purified protein, by the assay type", "conditions": "other: 37° C., pH 8.0", "procedure": "as §1, §2"}, "[9]": {"substrate": "OC[C@H]1O[C@H](O[C@H]2[C@H](O)[C@@H](O)C(O)O[C@@H]2CO)[C@H](O)[C@@H](O)[C@@H]1O", "experiment": "purified protein, by the assay type", "conditions": "other: 37° C., pH 8.0", "procedure": "as §1, §2"}, "[10]": {"substrate": "OC1OC[C@@H](O[C@@H]2OC[C@@H](O)[C@H](O)[C@H]2O)[C@H](O)[C@H]1O", "experiment": "purified protein, by the assay type", "conditions": "other: 37° C., pH 8.0", "procedure": "as §1, §2"}, "[11]": {"substrate": "OC[C@H]1O[C@@H](O[C@H]2[C@H](O)[C@@H](O)C(O)O[C@@H]2CO)[C@H](O)[C@@H](O)[C@@H]1O", "experiment": "purified protein, by the assay type", "conditions": "other: 37° C., pH 8.0", "procedure": "as §1, §2"}, "[12]": {"substrate": "OC[C@H]1O[C@@H](O[C@H]2[C@H](O)[C@@H](O)[C@H](O[C@H]3[C@H](O)[C@@H](O)C(O)O[C@@H]3CO)O[C@@H]2CO)[C@H](O)[C@@H](O)[C@@H]1O", "experiment": "purified protein, by the assay type", "conditions": "other: 37° C., pH 8.0", "procedure": "as §1, §2"}, "[13]": {"substrate": "OC1OC[C@@H](O[C@@H]2OC[C@@H](O[C@@H]3OC[C@@H](O)[C@H](O)[C@H]3O)[C@H](O)[C@H]2O)[C@H](O)[C@H]1O", "experiment": "purified protein, by the assay type", "conditions": "other: 37° C., pH 8.0", "procedure": "as §1, §2"}, "[14]": {"experiment": "Chromogenic H2O2 oxidase assay / kinetic analysis on maltose", "procedure": "as §1, §2"}, "[15]": {"experiment": "Chromogenic H2O2 oxidase assay / kinetic analysis on glucose", "procedure": "as §1, §2"}, "[16]": {"experiment": "Chromogenic H2O2 oxidase assay / kinetic analysis on cellobiose", "procedure": "as §1, §2"}, "[17]": {"experiment": "Chromogenic H2O2 oxidase assay / kinetic analysis on cellotriose"}, "[18]": {"experiment": "Chromogenic H2O2 oxidase assay on xylotetraose", "conditions": "1 mM xylotetraose; 37° C., 15 min", "procedure": "as §1\n(§3) An additional eight mutations, identified as Y72F, Y72A, E247A, E314A, W351A, N388S, Q353N, Q384A, were created in GOOX-VN to assess the influence of these residues on the substrate selectivity of GOOX-VN. […] The specific activity of each mutant was then measured at 37° C. for 15 min using 10 mM mono-sugars and 1 mM oligosaccharides as performed for Y300A, Y300N, and W351F (Table 11)."}, "[19]": {"experiment": "Chromogenic H2O2 oxidase assay on xylopentaose", "conditions": "1 mM xylopentaose; 37° C., 15 min", "procedure": "as §1, §3"}, "[20]": {"experiment": "Chromogenic H2O2 oxidase assay on xylohexaose", "conditions": "1 mM xylohexaose; 37° C., 15 min", "procedure": "as §1, §3"}, "[21]": {"conditions": "1 mM xylotriose, 37° C., 15 min"}, "[22]": {"conditions": "10 mM galactose, 37° C., 15 min"}, "[23]": {"conditions": "1 mM cellobiose, 37° C., 15 min"}, "[24]": {"conditions": "1 mM cellotriose, 37° C., 15 min"}}}
{"molecule": "Acremonium strictum gluco-oligosaccharide oxidase GOOX-VN variant 3 W351F, SEQ ID NO. 8 (Sarocladium strictum; A38V/S388N/W351F) (protein) NSINACLAAADVEFHEEDSEGWEMDGTAFNLRVDYDPVAIAIPRSTEDIAAAVQCGLDAGVQISAKGGGHSYGSYGFGGEDGHLMLELDRMYRVSVDDDNVATIQGGARLGYTALELLDQGNRALTHGTCPAVGIGGHVLGGGYGFATHTHGLTLDWLVGATVVLADASIVHVSKTENADLFWALRGGGGGFAIVSEFEFNTFEAPEIITTYQVTTTWNRKQHVAGLKALQDWAENTMPRELSMRLEINANALNWEGNYFGNAKDLKKVLQPIMKKAGGKSTISKLVETDWYGQINTYLYGADLNITYNYDVHEYFYANSLTAPRLSDEAISAFVDYKFDNSSVRPGRGWFIQWDFHGGKNSALASHSNDETAYAHRDQLWLWQFYDNIYDYENNTSPYPESGFEFMQGFVATIEDTLPEDRKGKYFNYADTTLDKEEAQKLYWRGNLEKLQAIKAKYDPEDVFGNVVSVEPIA", "values": [{"measurement": "Activity, Deglycosylated", "setting": "[1]; deglycosylated with PNGaseF (native conditions)", "result": 3.19, "unit": "nmol/min"}, {"measurement": "Activity, Glycosylated", "setting": "[1]; glycosylated enzyme", "result": 3.13, "unit": "nmol/min"}, {"measurement": "Specific activity Defined substrate concentration", "setting": "[2]; 10 mM NAG, 37° C., 15 min", "result": 0.1, "unit": "µmol/mg/min"}, {"measurement": "Specific activity From Vmax", "setting": "[2]; substrate NAG", "result": 7.71, "unit": "µmol/mg/min"}, {"measurement": "Specific activity Defined substrate concentration", "setting": "[3]; [21]", "result": 5.95, "unit": "µmol/mg/min"}, {"measurement": "Specific activity From Vmax", "setting": "[3]; substrate xylotriose", "result": 7.81, "unit": "µmol/mg/min"}, {"measurement": "Specific activity Defined substrate concentration", "setting": "[4]; 1 mM xylobiose, 37° C., 15 min", "result": 5.93, "unit": "µmol/mg/min"}, {"measurement": "Specific activity From Vmax", "setting": "[4]; substrate xylobiose", "result": 7.88, "unit": "µmol/mg/min"}, {"measurement": "Specific activity Defined substrate concentration", "setting": "[5]; 10 mM xylose, 37° C., 15 min", "result": 0.15, "unit": "µmol/mg/min"}, {"measurement": "Specific activity From Vmax", "setting": "[5]; substrate xylose", "result": 4.57, "unit": "µmol/mg/min"}, {"measurement": "Specific activity Defined substrate concentration", "setting": "[6]; [22]", "result": 1.30, "unit": "µmol/mg/min"}, {"measurement": "Specific activity From Vmax", "setting": "[6]; substrate galactose", "result": 6.49, "unit": "µmol/mg/min"}, {"measurement": "Km", "setting": "[7]", "result": "31050 ± 1330", "unit": "µM"}, {"measurement": "Km", "setting": "[8]", "result": "36120 ± 1300", "unit": "µM"}, {"measurement": "Km", "setting": "[9]", "result": "4960 ± 230", "unit": "µM"}, {"measurement": "kcat", "setting": "[9]", "result": "5.38 ± 0.0733", "unit": "s⁻¹"}, {"measurement": "kcat/Km", "setting": "[9]", "result": "1080 ± 51.7", "unit": "M⁻¹ s⁻¹"}, {"measurement": "Km", "setting": "[10]", "result": "350 ± 10", "unit": "µM"}, {"measurement": "kcat", "setting": "[10]", "result": "7.96 ± 0.0583", "unit": "s⁻¹"}, {"measurement": "kcat/Km", "setting": "[10]", "result": "23000 ± 683", "unit": "M⁻¹ s⁻¹"}, {"measurement": "Km", "setting": "[11]", "result": "80 ± 0", "unit": "µM"}, {"measurement": "kcat", "setting": "[11]", "result": "5.74 ± 0.0833", "unit": "s⁻¹"}, {"measurement": "kcat/Km", "setting": "[11]", "result": "69000 ± 1000", "unit": "M⁻¹ s⁻¹"}, {"measurement": "Km", "setting": "[12]", "result": "110 ± 10", "unit": "µM"}, {"measurement": "kcat", "setting": "[12]", "result": "5.25 ± 0.107", "unit": "s⁻¹"}, {"measurement": "kcat/Km", "setting": "[12]", "result": "47300 ± 4420", "unit": "M⁻¹ s⁻¹"}, {"measurement": "Km", "setting": "[13]", "result": "310 ± 10", "unit": "µM"}, {"measurement": "kcat", "setting": "[13]", "result": "7.885 ± 0.0717", "unit": "s⁻¹"}, {"measurement": "kcat/Km", "setting": "[13]", "result": "25700 ± 867", "unit": "M⁻¹ s⁻¹"}, {"measurement": "Specific activity Defined substrate concentration", "setting": "[14]; 1 mM maltose, 37° C., 15 min", "result": 0.84, "unit": "µmol/mg/min"}, {"measurement": "Specific activity From Vmax", "setting": "[14]; substrate maltose", "result": 5.33, "unit": "µmol/mg/min"}, {"measurement": "Specific activity Defined substrate concentration", "setting": "[15]; 10 mM glucose, 37° C., 15 min", "result": 1.31, "unit": "µmol/mg/min"}, {"measurement": "Specific activity From Vmax", "setting": "[15]; substrate glucose", "result": 5.57, "unit": "µmol/mg/min"}, {"measurement": "Specific activity Defined substrate concentration", "setting": "[16]; [23]", "result": 5.10, "unit": "µmol/mg/min"}, {"measurement": "Specific activity From Vmax", "setting": "[16]; substrate cellobiose", "result": 5.68, "unit": "µmol/mg/min"}, {"measurement": "Specific activity Defined substrate concentration", "setting": "[17]; [24]", "result": 4.62, "unit": "µmol/mg/min"}, {"measurement": "Specific activity From Vmax", "setting": "[17]; substrate cellotriose", "result": 5.20, "unit": "µmol/mg/min"}]}
{"molecule": "W351A: GOOX-VN mutant with W351A substitution (protein) NSINACLAAADVEFHEEDSEGWEMDGTAFNLRVDYDPVAIAIPRSTEDIAAAVQCGLDAGVQISAKGGGHSYGSYGFGGEDGHLMLELDRMYRVSVDDDNVATIQGGARLGYTALELLDQGNRALTHGTCPAVGIGGHVLGGGYGFATHTHGLTLDWLVGATVVLADASIVHVSKTENADLFWALRGGGGGFAIVSEFEFNTFEAPEIITTYQVTTTWNRKQHVAGLKALQDWAENTMPRELSMRLEINANALNWEGNYFGNAKDLKKVLQPIMKKAGGKSTISKLVETDWYGQINTYLYGADLNITYNYDVHEYFYANSLTAPRLSDEAISAFVDYKFDNSSVRPGRGWAIQWDFHGGKNSALASHSNDETAYAHRDQLWLWQFYDNIYDYENNTSPYPESGFEFMQGFVATIEDTLPEDRKGKYFNYADTTLDKEEAQKLYWRGNLEKLQAIKAKYDPEDVFGNVVSVEPIA", "values": [{"measurement": "Specific Activity of Enzyme Variants", "setting": "[18]", "result": 0.3, "unit": "µmol/min/mg"}, {"measurement": "Specific Activity of Enzyme Variants", "setting": "[19]", "result": 0.3, "unit": "µmol/min/mg"}, {"measurement": "Specific Activity of Enzyme Variants", "setting": "[3]; [21]", "result": 0.1, "unit": "µmol/min/mg"}, {"measurement": "Specific Activity of Enzyme Variants", "setting": "[4]; 1 mM xylobiose, 37° C., 15 min", "result": 0.1, "unit": "µmol/min/mg"}, {"measurement": "Specific Activity of Enzyme Variants", "setting": "[6]; [22]", "result": 0.3, "unit": "µmol/min/mg"}, {"measurement": "Specific Activity of Enzyme Variants", "setting": "[20]", "result": 0.5, "unit": "µmol/min/mg"}, {"measurement": "Specific Activity of Enzyme Variants", "setting": "[16]; [23]", "result": 0.6, "unit": "µmol/min/mg"}, {"measurement": "Specific Activity of Enzyme Variants", "setting": "[17]; [24]", "result": 1.1, "unit": "µmol/min/mg"}]}
{"molecule": "E247A: GOOX-VN mutant with E247A substitution (protein) NSINACLAAADVEFHEEDSEGWEMDGTAFNLRVDYDPVAIAIPRSTEDIAAAVQCGLDAGVQISAKGGGHSYGSYGFGGEDGHLMLELDRMYRVSVDDDNVATIQGGARLGYTALELLDQGNRALTHGTCPAVGIGGHVLGGGYGFATHTHGLTLDWLVGATVVLADASIVHVSKTENADLFWALRGGGGGFAIVSEFEFNTFEAPEIITTYQVTTTWNRKQHVAGLKALQDWAENTMPRELSMRLAINANALNWEGNYFGNAKDLKKVLQPIMKKAGGKSTISKLVETDWYGQINTYLYGADLNITYNYDVHEYFYANSLTAPRLSDEAISAFVDYKFDNSSVRPGRGWWIQWDFHGGKNSALASHSNDETAYAHRDQLWLWQFYDNIYDYENNTSPYPESGFEFMQGFVATIEDTLPEDRKGKYFNYADTTLDKEEAQKLYWRGNLEKLQAIKAKYDPEDVFGNVVSVEPIA", "values": [{"measurement": "Specific Activity of Enzyme Variants", "setting": "[18]", "result": 5.3, "unit": "µmol/min/mg"}, {"measurement": "Specific Activity of Enzyme Variants", "setting": "[19]", "result": 5.2, "unit": "µmol/min/mg"}, {"measurement": "Specific Activity of Enzyme Variants", "setting": "[3]; [21]", "result": 3.5, "unit": "µmol/min/mg"}, {"measurement": "Specific Activity of Enzyme Variants", "setting": "[4]; 1 mM xylobiose, 37° C., 15 min", "result": 4.2, "unit": "µmol/min/mg"}, {"measurement": "Specific Activity of Enzyme Variants", "setting": "[20]", "result": 5.1, "unit": "µmol/min/mg"}, {"measurement": "Specific Activity of Enzyme Variants", "setting": "[15]; 10 mM glucose, 37° C., 15 min", "result": 0.4, "unit": "µmol/min/mg"}, {"measurement": "Specific Activity of Enzyme Variants", "setting": "[16]; [23]", "result": 2.2, "unit": "µmol/min/mg"}, {"measurement": "Specific Activity of Enzyme Variants", "setting": "[17]; [24]", "result": 2.7, "unit": "µmol/min/mg"}]}
